Assay results from US20190233486A1 (ACCELERON PHARMA, published 2019).

Columns and labels:
GDF11 = molecular target: T1, GDF11 (UniProt O95390 299-407); test: Biacore SPR; ligand coupled to the chip, receptor-Fc flowed over (data reproduced from WO2006/012627)
T1 construct: also called growth and differentiation factor-11; BMP11
T1 sequence (looked up): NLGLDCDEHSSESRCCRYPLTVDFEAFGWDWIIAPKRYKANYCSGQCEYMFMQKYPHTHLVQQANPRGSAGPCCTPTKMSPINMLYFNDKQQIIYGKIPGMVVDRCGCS

activin A = molecular target: T2, activin A (UniProt P08476 311-426); test: as above
T2 construct: also called ActA
T2 sequence (looked up): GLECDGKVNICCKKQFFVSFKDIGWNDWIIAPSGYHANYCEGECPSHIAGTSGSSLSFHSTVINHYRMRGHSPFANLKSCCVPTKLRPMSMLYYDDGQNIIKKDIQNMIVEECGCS

B1: Soluble ActRIIB-Fc WT (64A) (Fc fusion, not shown: a dimerising Fc or GST)
chain: GRGEAETRECIYYNANWELERTNQSGLERCEGEQDKRLHCYASWANSSGTIELVKKGCWLDDFNCYDRQECVATEENPQVYFCCCEGNFCNERFTHLPEA
notes: Data reproduced from WO2006/012627
GDF11
  Kd: 260 nM
Activin A
  Kd: 180 nM
